Source: patent US20210079378A1 (Chugai, published 2021)
Changes are numbered by the printed parent chain.

Columns and labels:
[1] = target: T1, soluble mouse IL-31 receptor (mouse, UniProt Q8K5B1 19-499); assay: SPR Biacore T100, 25C, pH 5.5; antibody captured on protein A/G chip, soluble mouse IL-31 receptor analyte; pH 5.5
T1 construct: Soluble form
T1 sequence (looked up): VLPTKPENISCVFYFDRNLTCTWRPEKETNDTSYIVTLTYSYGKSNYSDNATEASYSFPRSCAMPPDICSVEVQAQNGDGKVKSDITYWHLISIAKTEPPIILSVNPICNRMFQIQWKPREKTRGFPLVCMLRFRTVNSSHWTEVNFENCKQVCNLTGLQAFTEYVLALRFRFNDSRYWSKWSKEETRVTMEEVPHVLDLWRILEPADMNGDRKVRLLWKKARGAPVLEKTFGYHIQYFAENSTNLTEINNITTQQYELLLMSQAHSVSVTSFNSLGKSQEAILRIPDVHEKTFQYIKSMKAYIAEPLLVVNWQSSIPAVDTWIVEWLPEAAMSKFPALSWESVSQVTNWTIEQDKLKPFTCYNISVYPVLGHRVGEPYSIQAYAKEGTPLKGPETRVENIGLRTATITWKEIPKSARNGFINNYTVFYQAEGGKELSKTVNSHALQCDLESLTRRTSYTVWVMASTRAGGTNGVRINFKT
Experimental: Kinetic analysis of antigen-antibody reactions at pH 5.5 and pH 7.4 was carried out using a Biacore T100™ surface plasmon resonance system (GE Healthcare) for the two types of antibodies prepared as mentioned above: Anti-IL31R wild type and Anti-IL31R clone 1 (buffer: DPBS(−) (pH 7.4 or pH 5.5), 150 mM NaCl, 0.01% TWEEN® 20 (polyoxyethelene sorbitan monolaurate), 0.02% NaN₃). The antibodies were bound to a sensor chip on which recomb-protein A/G (Pierce) was immobilized by amine coupling, and then the soluble mouse IL-31 receptor (prepared according to the method described in WO 2007/142325) adjusted to an appropriate concentration was injected therein as an analyte. All the measurements were carried out at 25° C. Association rate constants kₐ (1/Ms) and dissociation rate constants kd (1/s) were calculated using Biacore T100™ Evaluation Software (GE Healthcare), and dissociation constants KD (M) were calculated based on those values (Table 16). Furthermore, the ratio of affinity at pH 5.5 and pH 7.4 was calculated for each clone to evaluate the pH-dependent binding.

[2] = target: T2, recombinant soluble human IL-6 receptor (SR344) (human, UniProt P08887 20-344); assay: SPR Biacore T100, 37C; antibody captured on protein A/G chip, SR344 analyte; pH 5.8 vs pH 7.4
T2 construct: In the membrane-type IL-6 receptor assays the same protein was biotinylated and immobilised on the sensor chip via streptavidin, as stated under assay; also called soluble IL-6 receptor; membrane-type IL-6 receptor (as biotinylated SR344 immobilised on the chip)
T2 sequence (looked up): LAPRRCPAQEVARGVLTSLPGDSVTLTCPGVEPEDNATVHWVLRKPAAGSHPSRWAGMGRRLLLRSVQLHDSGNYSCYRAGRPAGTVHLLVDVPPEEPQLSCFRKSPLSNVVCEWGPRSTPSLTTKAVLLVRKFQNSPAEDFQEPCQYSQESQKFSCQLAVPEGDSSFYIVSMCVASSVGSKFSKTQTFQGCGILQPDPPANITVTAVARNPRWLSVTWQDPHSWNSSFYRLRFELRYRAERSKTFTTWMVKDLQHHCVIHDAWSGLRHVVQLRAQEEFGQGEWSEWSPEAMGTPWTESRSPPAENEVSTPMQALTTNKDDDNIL
Experimental: Kinetic analyses of antigen-antibody reactions at pH 5.8 and pH 7.4 were carried out using a Biacore™ T100 surface plasmon resonance system (GE Healthcare) on the four antibodies: humanized PM1 antibody (WT) and H3pI/L73, CLH5/L73, and H170/L82 produced in Examples 2 and 4 (buffer: 10 mM MES (pH 7.4 or pH 5.8), 150 mM NaCl, and 0.05% TWEEN® 20 (polyoxyethelene sorbitan monolaurate)). Various antibodies were bound onto a sensor chip immobilized with recomb-protein A/G (Pierce) by amine coupling. SR344 adjusted to concentrations of 9.8 to 400 nM was injected to the chip as an analyte. […] All the measurements were carried out at 37° C. Association rate constants kₐ (1/Ms) and dissociation rate constants kd (1/s) were calculated using Biacore T100™ Evaluation Software (GE Healthcare), and dissociation constants KD (M) were calculated on the basis of those values (Table 5). Moreover, the ratio of the affinities at pH 5.8 and pH 7.4 were calculated for each clone to evaluate pH-dependent binding. All the measurements were carried out at 37° C.

B1: Anti-IL31R wild type (antibody, human IgG1, lambda, V domains shown)
VH: not shown
VL: LPVLTQPPSVSVAPGQTARITCGGNNIGSKTVYWYQQEPGQAPVLVVYDDTDRPAGIPERFSGANSGNTATLTISRVEAGDEADYYCQVWDSSTDHGVFGGGTKLTVLG
notes: Antibody described in WO 2007/142325; also called anti-IL-31 receptor antibody H chain (WT)/L chain (WT)
kon [1]: 51000 M⁻¹ s⁻¹

B2: H3pI/L73 (antibody, IgG1, V domains shown)
VH: QVQLQESGPGLVKPSETLSLTCAVSGHSISHDHAHSWVRQPPGEGLEWIGYISYSGITNYNPSLKGRVTISRDTSKNQFSLKLSSVTAADTAAYYCARSLARTTAMDYWGEGTLVTVSS
VL: DIQMTQSPSSLSASVGDSVTITCQASQHISSHLNWYQQKPGKAPELLIYYGSHLHSGVPSRFSGSGSGTDFTFTISSLEAEDAATYYCGQGNRLPYTFGQGTKVEIE
notes: Tested as IgG1; also called H3pI/L73-IgG1; H3pl/L73
affinity ratio between pH 5.8 and pH 7.4 [2]: 41 fold

B3: H170/L82 (antibody, IgG1, V domains shown)
VH: B2 VH with D32H, N59H, S63H, S99V, T103I, Y108H
VL: B2 VL with H28D
notes: Tested as IgG1; also called H170/L82-IgG1
affinity ratio between pH 5.8 and pH 7.4 [2]: 394 fold

B4: CLH5/L73 (antibody, IgG1, V domains shown)
VH: B2 VH with H27Y, H35W, Y51H, S63H, S99F, T103I, M106H, Y108H
VL: B2 VL
notes: Expressed and purified as IgG
affinity ratio between pH 5.8 and pH 7.4 [2]: 66 fold
